Positions count from the first letter of the chain named. Names and notes keep the numbering of the source.
T1: full length human TMPRSS6 on HEK293 cells (HEK293/hTMPRSS6) (human, UniProt Q8IU80 10-811)
T1 sequence (looked up): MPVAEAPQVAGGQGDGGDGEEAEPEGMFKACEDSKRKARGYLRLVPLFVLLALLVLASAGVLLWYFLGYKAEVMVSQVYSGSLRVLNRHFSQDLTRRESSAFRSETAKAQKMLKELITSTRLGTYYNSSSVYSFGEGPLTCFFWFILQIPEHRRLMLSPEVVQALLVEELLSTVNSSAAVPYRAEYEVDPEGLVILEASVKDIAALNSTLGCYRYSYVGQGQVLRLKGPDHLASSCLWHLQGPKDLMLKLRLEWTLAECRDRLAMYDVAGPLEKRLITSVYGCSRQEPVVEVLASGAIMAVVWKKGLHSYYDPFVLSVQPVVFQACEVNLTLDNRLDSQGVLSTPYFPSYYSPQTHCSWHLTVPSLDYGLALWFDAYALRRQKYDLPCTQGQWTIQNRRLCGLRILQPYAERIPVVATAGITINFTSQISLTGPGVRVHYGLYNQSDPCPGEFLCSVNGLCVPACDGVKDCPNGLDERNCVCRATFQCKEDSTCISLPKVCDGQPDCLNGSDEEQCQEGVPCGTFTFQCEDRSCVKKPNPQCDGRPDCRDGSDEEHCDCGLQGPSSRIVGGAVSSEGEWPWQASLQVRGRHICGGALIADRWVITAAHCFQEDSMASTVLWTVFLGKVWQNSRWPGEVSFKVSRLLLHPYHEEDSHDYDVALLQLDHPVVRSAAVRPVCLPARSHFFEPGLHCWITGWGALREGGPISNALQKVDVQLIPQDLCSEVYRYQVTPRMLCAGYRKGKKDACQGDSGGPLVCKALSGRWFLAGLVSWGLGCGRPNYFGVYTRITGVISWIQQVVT

T2: full length human TMPRSS6 with a C-terminal triple myc tag on HEK293.hHJV cells (HEK293.hHJV/3xMyc.hTMPRSS6) (human, UniProt Q8IU80 1-811)
T2 sequence: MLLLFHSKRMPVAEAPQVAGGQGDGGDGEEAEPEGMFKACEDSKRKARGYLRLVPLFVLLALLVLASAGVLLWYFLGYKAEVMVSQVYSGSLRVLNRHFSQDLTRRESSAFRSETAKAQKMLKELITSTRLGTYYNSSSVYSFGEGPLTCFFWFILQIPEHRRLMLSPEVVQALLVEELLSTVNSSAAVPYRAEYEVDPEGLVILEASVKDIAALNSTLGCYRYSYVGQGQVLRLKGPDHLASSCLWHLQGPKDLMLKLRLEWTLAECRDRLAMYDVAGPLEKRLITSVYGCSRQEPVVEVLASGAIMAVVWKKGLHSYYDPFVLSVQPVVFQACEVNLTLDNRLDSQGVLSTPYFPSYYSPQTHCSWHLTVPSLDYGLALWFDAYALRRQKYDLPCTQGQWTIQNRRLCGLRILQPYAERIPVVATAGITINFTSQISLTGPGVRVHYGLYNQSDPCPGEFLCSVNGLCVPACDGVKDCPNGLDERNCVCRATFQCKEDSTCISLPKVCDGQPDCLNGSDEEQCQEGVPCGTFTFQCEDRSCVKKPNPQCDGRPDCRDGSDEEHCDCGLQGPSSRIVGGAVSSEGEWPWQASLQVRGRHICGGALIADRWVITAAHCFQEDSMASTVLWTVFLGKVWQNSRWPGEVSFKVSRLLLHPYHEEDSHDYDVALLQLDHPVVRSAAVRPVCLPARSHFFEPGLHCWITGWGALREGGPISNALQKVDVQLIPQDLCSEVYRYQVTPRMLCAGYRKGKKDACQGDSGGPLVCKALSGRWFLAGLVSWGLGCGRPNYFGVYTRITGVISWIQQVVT

T3: full-length mouse TMPRSS6 with a C-terminal triple myc tag on HEK293.hHJV cells (HEK293.hHJV/3xMyc.mTMPRSS6) (mouse, UniProt Q9DBI0 1-811)
T3 sequence: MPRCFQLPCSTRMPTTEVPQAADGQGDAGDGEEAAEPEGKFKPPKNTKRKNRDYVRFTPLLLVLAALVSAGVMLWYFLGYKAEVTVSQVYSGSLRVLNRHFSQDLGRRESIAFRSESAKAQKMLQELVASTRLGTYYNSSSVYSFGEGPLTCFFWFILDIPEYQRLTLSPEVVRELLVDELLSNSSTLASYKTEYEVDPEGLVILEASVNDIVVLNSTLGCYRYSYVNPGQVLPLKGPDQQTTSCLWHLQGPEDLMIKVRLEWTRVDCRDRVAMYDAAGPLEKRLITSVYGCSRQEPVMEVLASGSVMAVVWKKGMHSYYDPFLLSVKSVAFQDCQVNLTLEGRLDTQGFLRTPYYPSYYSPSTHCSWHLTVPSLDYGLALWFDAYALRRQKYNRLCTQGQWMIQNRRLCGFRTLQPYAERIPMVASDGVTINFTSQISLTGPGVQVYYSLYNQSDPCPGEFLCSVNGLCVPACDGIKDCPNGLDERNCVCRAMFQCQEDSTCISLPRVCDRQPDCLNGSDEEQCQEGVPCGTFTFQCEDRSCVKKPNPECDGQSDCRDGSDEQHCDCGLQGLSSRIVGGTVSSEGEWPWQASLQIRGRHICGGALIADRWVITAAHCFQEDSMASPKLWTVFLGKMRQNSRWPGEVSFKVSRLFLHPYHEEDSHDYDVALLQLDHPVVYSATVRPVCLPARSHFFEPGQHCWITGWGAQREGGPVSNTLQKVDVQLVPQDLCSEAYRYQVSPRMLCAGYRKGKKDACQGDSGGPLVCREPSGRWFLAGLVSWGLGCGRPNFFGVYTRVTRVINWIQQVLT

B1: REGN7999 (antibody, human IgG4 S228P, kappa, V domains shown)
VH: EVQLVESGGGLVQPGGSLRLSCAASGFTFSSYAMTWVRQAPGKGLEWVSAISGSDTSTYYADSVKGRFTISRDNSKNTLFLQMNSLRAEDTAVYYCAKHQDYDFSYYYSAMDVWGQGTTVTVSS
VL: DIQMTQSPSSLSASVGDRVIITCRASQDFNSWLAWYQQKPGKAPKLLIYAASSLQSGVPSRFSGSGSGTDFTLTISSLQPEDFATYYCQQTDSFPFTFGPGTKVDIKR
notes: fully human; human IgG4 Fc with hinge S108P; also called mAb41450
B2: REGN7977 (antibody, V domains shown)
VH: EVQLVESGGGLVKPGGSLRVSCAASGVTFSNVWMSWVRQVPGKGLEWVGRIKSKTDGGTTDYAAPVKGRFTISKDDSKNTLFLQMNSLKTEDTAVYYCTTETGDFWSGYYPRFQHWGQGTLVTVSS
VL: DIQMTQSPSSLSASVGDRVTITCRASQYISTYLNWYQQKPGKAPSLLIYAASSLQSGVPSRFSGSGSGTDFTLTISSLQPEDFASYSCQQSYSTPPYTFGQGTKLEIKR
notes: fully human; human IgG4 Fc with hinge S108P; also called mAb41465
B3: REGN8023 (antibody, human IgG4 S228P, kappa, V domains shown)
VH: EVQLVESGGGLVKPGGSLRISCAASGFIFVDYAMHWVRQAPGKGLEWVSGISWNSGSIGYADSVKGRFTISRDNAKKSLYLQMSGLRPEDTALYYCVKSGFYYVRSYFDNWGQGTLVTVSS
VL: DIVMTQSPLSLPVTPGEPASISCRSSQSLLDSDDGNTYLDWYLRKPGQSPQLLIYTLSYRASGVPDRFSGSGSGTDFTLKISRVEADDVGVYYCMQRIEFPLTFGGGTKVEIKR
notes: fully human; human IgG4 Fc with hinge S108P; also called mAb37699
B4: REGN7969 (antibody, human IgG4 S228P, kappa, V domains shown)
VH: QVQLVESGGGVVQPGRSLRLSCAASGFTFNNYGMHWVRQAPGKGLEWVAIISYDGSNEYYSDSVKGRFTISRDNSKNTLYLQMNSLRAEDTAVYYCARDQDYGGNLFHYWGQGTLVTVSS
VL: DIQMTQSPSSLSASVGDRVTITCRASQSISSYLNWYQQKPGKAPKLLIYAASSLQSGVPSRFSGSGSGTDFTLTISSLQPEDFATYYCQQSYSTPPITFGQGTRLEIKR
notes: fully human; human IgG4 Fc with hinge S108P; also called mAb37746
B5: REGN7971 (antibody, human IgG4 S228P, kappa, V domains shown)
VH: B4 VH with N30S, N31T, E58D, S61L, S85N, R98K, D101G, H108A, Y109S
VL: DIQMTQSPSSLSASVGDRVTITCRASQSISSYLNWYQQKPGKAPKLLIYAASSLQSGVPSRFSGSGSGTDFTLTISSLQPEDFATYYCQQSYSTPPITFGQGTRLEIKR
notes: fully human; human IgG4 Fc with hinge S108P; also called mAb37763
B6: REGN7974 (antibody, human IgG4 S228P, kappa, V domains shown)
VH: EVQLVESGGGLVQPGRSLRLSCIASGFNFGDYGMSWVRQAPGKGLEWVGFIRSKAYGGTTEYAASVKGRFTISRDDSKSIAYLQMNSLKTEDAAMYYCSRDYYDILTGYYGDYWGQGTLVTVSS
VL: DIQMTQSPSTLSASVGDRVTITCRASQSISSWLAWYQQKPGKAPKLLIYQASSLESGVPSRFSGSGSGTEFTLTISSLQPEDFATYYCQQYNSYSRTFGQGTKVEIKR
notes: fully human; human IgG4 Fc with hinge S108P; also called mAb41422

These binders were tested against T1, full length human TMPRSS6 on HEK293 … (assay: cell-based or functional assay).

Row | % inhibition, HEK293 bioassay, overnight pre-incubation 37 C | IC50, HEK293 bioassay, overnight pre-incubation 37 C | Binder
1 | 89% | 2.1 nM | B1
2 | 87% | 1.7 nM | B2
3 | 90% | 1.1 nM | B3
4 | 88% | 1.2 nM | B4
5 | 90% | 1.4 nM | B5
6 | 86% | 2.6 nM | B6

Each binder was assayed against T2, full length human TMPRSS6 with a … (assay: cell-based or functional assay).

Row | Geometric Mean Fluorescence Intensity of cell surface hHJV, 50 nM mAb | Median Fluorescence Intensity of cell surface hHJV, 50 nM mAb | Binder
7 | 30700 | 40100 | B1
8 | 49000 | 63800 | B2
9 | 55500 | 77800 | B3
10 | 47900 | 67500 | B4
11 | 61800 | 84400 | B5
12 | 40900 | 56700 | B6

These binders were tested against T3, full-length mouse TMPRSS6 with a … (assay: cell-based or functional assay).

Row | Geometric Mean Fluorescence Intensity of cell surface hHJV, 50 nM mAb | Median Fluorescence Intensity of cell surface hHJV, 50 nM mAb | Binder
13 | 23700 | 33600 | B1
14 | 9130 | 7030 | B2
15 | 19000 | 19400 | B3
16 | 8390 | 7810 | B4
17 | 8230 | 7470 | B5
18 | 6960 | 6220 | B6

— patent publication US20220411487A1 (Regeneron, published 2022)
